First the molecules themselves.
B1: YqhD: 3-hydroxybutyraldehyde reductase (E. coli), SEQ ID NO: 34 gene product (protein, UniProt Q46856 1-387, looked up)
NADPH-dependent aldehyde …: MNNFNLHTPTRILFGKGAIAGLREQIPHDARVLITYGGGSVKKTGVLDQVLDALKGMDVLEFGGIEPNPAYETLMNAVKLVREQKVTFLLAVGGGSVLDGTKFIAAAANYPENIDPWHILQTGGKEIKSAIPMGCVLTLPATGSESNAGAVISRKTTGDKQAFHSAHVQPVFAVLDPVYTYTLPPRQVANGVVDAFVHTVEQYVTKPVDAKIQDRFAEGILLTLIEDGPKALKEPENYDVRANVMWAATQALNGLIGAGVPQDWATHMLGHELTAMHGLDHAQTLAIVLPALWNEKRDTKRAKLLQYAERVWNITEGSDDERIDAAIAATRNFFEQLGVPTHLSDYGLDGSSIPALLKKLEEHGMTQLGENHDITLDVSRRIYEAAR
B2: DhaT: alcohol dehydrogenase from K. pneumoniae (protein, UniProt Q59477 1-387, looked up)
1,3-propanediol dehydrogenase: MSYRMFDYLVPNVNFFGPNAISVVGERCQLLGGKKALLVTDKGLRAIKDGAVDKTLHYLREAGIEVAIFDGVEPNPKDTNVRDGLAVFRREQCDIIVTVGGGSPHDCGKGIGIAATHEGDLYQYAGIETLTNPLPPIVAVNTTAGTASEVTRHCVLTNTETKVKFVIVSWRNLPSVSINDPLLMIGKPAALTAATGMDALTHAVEAYISKDANPVTDAAAMQAIRLIARNLRQAVALGSNLQARENMAYASLLAGMAFNNANLGYVHAMAHQLGGLYDMPHGVANAVLLPHVARYNLIANPEKFADIAELMGENITGLSTLDAAEKAIAAITRLSMDIGIPQHLRDLGVKEADFPYMAEMALKDGNAFSNPRKGNEQEIAAIFRQAF
B3: YgjB (Ahr): E. coli-derived alcohol dehydrogenase, 3-hydroxybutyraldehyde reductase, SEQ ID NO: 35 gene product (protein, listed as Escherichia coli)
chain: MSMIKSYAAKEAGGELEVYEYDPGELRPQDVEVQVDYCGICHSDLSMIDNEWGFSQYPLVAGHEVIGRVVALGSAAQDKGLQVGQRVGIGWTARSCGHCDACISGNQINCEQGAVPTIMNRGGFAEKLRADWQWVIPLPENIDIESAGPLLCGGITVFKPLLMHHITATSRVGVIGIGGLGHIAIKLLHAMGCEVTAFSSNPAKEQEVLAMGADKVVNSRDPQALKALAGQFDLIINTVNVSLDWQPYFEALTYGGNFHTVGAVLTPLSVPAFTLIAGDRSVSGSATGTPYELRKLMRFAARSKVAPTTELFPMSKINDAIQHVRDGKARYRVVLKADF
B4: YahK: E. coli-derived alcohol dehydrogenase, 3-hydroxybutyraldehyde reductase, SEQ ID NO: 36 gene product (protein, listed as Escherichia coli)
chain: MKIKAVGAYSAKQPLEPMDITRREPGPNDVKIEIAYCGVCHSDLHQVRSEWAGTVYPCVPGHEIVGRVVAVGDQVEKYAPGDLVGVGCIVDSCKHCEECEDGLENYCDHMTGTYNSPTPDEPGHTLGGYSQQIVVHERYVLRIRHPQEQLAAVAPLLCAGITTYSPLRHWQAGPGKKVGVVGIGGLGHMGIKLAHAMGAHVVAFTTSEAKREAAKALGADEVVNSRNADEMAAHLKSFDFILNTVAAPHNLDDFTTLLKRDGTMTLVGAPATPHKSPEVFNLIMKRRAIAGSMIGGIPETQEMLDFCAEHGIVADIEMIRADQINEAYERMLRGDVKYRFVIDNRTLTD

The data set in a line: Activity of purely isolated 3-HBA reductases (alcohol dehydrogenases) for 3-HBA. It counts as biochemical. Particulars: pure enzyme, substrate 3-HBA. The protocol: The activity of alcohol dehydrogenase was determined by photometric monitoring of the increase/decrease in NADP+/NADPH at 340 nm. The reaction mixture included 50 mM Tris-HCl at pH 7.0. For measurement of forward reactions, preparation was followed to include 0.15 mM NADPH and 5 mM 3-hydroxybutyraldehyde as substrates at 37° C. For reverse reactions, 2 mM NADP+ and 30 mM 1,3-BDO were used as cofactors and substrates, respectively. For the reduction reaction, 1 unit of enzymatic activity was defined as the amount of enzyme required to oxidize 1 μmol of NAD(P)H to NADP+ for 1 minute. For oxidation reactions, 1 unit of enzymatic activity was defined as the amount of enzyme required to reduce 1 μmol of NAD(P)+ to NAD(P)H for 1 minute.
Previously, 4 types of enzymes such as Cs_bdh, Ec_yqhD, Kp_dhaT, and Lr_pduQ were tested with 3-HBA reductase (FIG. 3), of which yqhD showing the best performance was used. However, the constant accumulation of 3-HBA and 3-HB indicates a lack of activity in these enzymes. Four aldoketoreductases (AKRs) were tested to improve the conversion from 3-HBA to 1,3-BDO. Two of the selected AKRs were derived from P. denitrificans, one derived from P. putida, and the other from P. aeruginosa. In addition, ygjB and yahK, also known as E. coli-derived alcohol dehydrogenase (ADH), were tested. Thereamong, enzymes coded by ygjB have been reported to have high activity for various aldehydes, especially high activity for butyraldehyde (kcat/Km, 221 sec-1 mM-1), while the enzyme coded by yahK has also been reported to have high activity for various aldehydes, especially high activity for butyraldehyde (kcat/Km, 19.8 sec-1 mM-1). Several ADH genes were cloned into E. coli, mass-produced, isolated and purified, and then tested for the activity of pure enzymes for 3-HBA.
Consider B1, for which the “Purely isolated enzymatic activity” value came to 0.06 U/mg protein.

As to B2, the “Purely isolated enzymatic activity” value worked out at 0.44 U/mg protein.

As for B3, the “Purely isolated enzymatic activity” value was determined as 238 U/mg protein.

Regarding B4, the “Purely isolated enzymatic activity” value stood at 6.98 U/mg protein.
